# Experimental data taken from paper doi:10.1101/2022.01.18.476780.
# Numbering of substitutions follows the chain as printed. Read-outs that look alike come from different tables or passages of the source.
# B1: DNA 27F (dsDNA)
# DNA 1: TGGAGAATCCCGGTGCCGAGGCCGCTCAATTGGTCGTAGACAGCTCTAGCACCGCTTAAACGCACGTACGCGCTGTCCCCCGCGTTATTAGCATCCAAACAAAGACTCCCTAGTCTCCAGGCACGTGTGGTTACGAGGCTATCGT
# DNA 2: ACGATAGCCTCGTAACCACACGTGCCTGGAGACTAGGGAGTCTTTGTTTGGATGCTAATAACGCGGGGGACAGCGCGTACGTGCGTTTAAGCGGTGCTAGAGCTGTCTACGACCAATTGAGCGGCCTCGGCACCGGGATTCTCCA
# B2: DNA 54RF (dsDNA)
# DNA 1: TGGAGAATCCCGGTGCCGAGGCCGCTCAATTGGTCGTAGACAGCTCTAGCACCGCTTAAACGCACGTACGCGCTGTCCCCCGCGTTTTAACCGCCAAGGGGATTACTCCCTAGTCTCCAGGCCTTTGTTTGGATGCTAATATCGT
# DNA 2: ACGATATTAGCATCCAAACAAAGGCCTGGAGACTAGGGAGTAATCCCCTTGGCGGTTAAAACGCGGGGGACAGCGCGTACGTGCGTTTAAGCGGTGCTAGAGCTGTCTACGACCAATTGAGCGGCCTCGGCACCGGGATTCTCCA
# B3: DNA 62N (dsDNA)
# DNA 1: TGGAGAATCCCGGTGCCGAGGCCGCTCAATTGGTCGTAGACAGCTCTAGCACCGCTTAAACGCACGTACGCGCTGTCCCCCGCGTTTTAACCGCCAAGGGGATTACTCCCTAGTCTCCAGGCACTTTTGCATTACAATGTATCGT
# DNA 2: ACGATACATTGTAATGCAAAAGTGCCTGGAGACTAGGGAGTAATCCCCTTGGCGGTTAAAACGCGGGGGACAGCGCGTACGTGCGTTTAAGCGGTGCTAGAGCTGTCTACGACCAATTGAGCGGCCTCGGCACCGGGATTCTCCA
# B4: DNA 54RN (dsDNA)
# DNA 1: TGGAGAATCCCGGTGCCGAGGCCGCTCAATTGGTCGTAGACAGCTCTAGCACCGCTTAAACGCACGTACGCGCTGTCCCCCGCGTTTTAACCGCCAAGGGGATTACTCCCTAGTCTCCAGGCCATTGTAATGCAAAAGCTATCGT
# DNA 2: ACGATAGCTTTTGCATTACAATGGCCTGGAGACTAGGGAGTAATCCCCTTGGCGGTTAAAACGCGGGGGACAGCGCGTACGTGCGTTTAAGCGGTGCTAGAGCTGTCTACGACCAATTGAGCGGCCTCGGCACCGGGATTCTCCA
# B5: DNA 62F (dsDNA)
# DNA 1: TGGAGAATCCCGGTGCCGAGGCCGCTCAATTGGTCGTAGACAGCTCTAGCACCGCTTAAACGCACGTACGCGCTGTCCCCCGCGTTTTAACCGCCAAGGGGATTACTCCCTAGTCTCCAGGATTAGCATCCAAACAAAGTATCGT
# DNA 2: ACGATACTTTGTTTGGATGCTAATCCTGGAGACTAGGGAGTAATCCCCTTGGCGGTTAAAACGCGGGGGACAGCGCGTACGTGCGTTTAAGCGGTGCTAGAGCTGTCTACGACCAATTGAGCGGCCTCGGCACCGGGATTCTCCA
# B6: DNA 2RN (dsDNA)
# DNA 1: TGGAGAATCCCGGTGCCGAGGCCGCTCAATTGGTCGTAGACAGCTCTAGCACCGCTTAAACGCACGTACGCATTGTAATGCAAAATTTAACCGCCAAGGGGATTACTCCCTAGTCTCCAGGCACGTGTGGTTACGAGGCTATCGT
# DNA 2: ACGATAGCCTCGTAACCACACGTGCCTGGAGACTAGGGAGTAATCCCCTTGGCGGTTAAATTTTGCATTACAATGCGTACGTGCGTTTAAGCGGTGCTAGAGCTGTCTACGACCAATTGAGCGGCCTCGGCACCGGGATTCTCCA
# B7: DNA 601* (dsDNA)
# DNA 1: B6 DNA 1 with A72G, T73C, A77C, A78C, T79C, G80C, A82G, A83C, A84G, A85T
# DNA 2: B3 DNA 2 with C7G, A8C, T9C, G11C, T12G, A13T, T15A, G16C, A19C, A21C
# B8: sDNAF (dsDNA)
# DNA 1: GACTCTTTGTTTGGC
# DNA 2: GCCAAACAAAGAGTC
# Assays:
# [1] = molecular target: T1, Sox2 HMG DBD WT (human, UniProt P48431 39-118); experiment: NMR
# [2] = molecular target: T1, Sox2 HMG DBD WT; experiment: EMSA
# [3] = molecular target: Oct4 DBD (POUS-linker-POUHD) (UniProt Q01860 133-296); experiment: EMSA
# [4] = molecular target: T1, Sox2 HMG DBD WT; experiment: NMR; remark: listed apart in the source
# [5] = molecular target: Sox2 HMG Y72A (human, UniProt P48431 39-118, Y108A); experiment: NMR
# Sequence of Sox2 HMG Y72A (P48431 39-118 Y108A): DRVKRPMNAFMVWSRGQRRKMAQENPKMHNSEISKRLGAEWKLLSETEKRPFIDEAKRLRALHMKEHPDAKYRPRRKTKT
# Sequence of Oct4 DBD (POUS-linker-POUHD) (Q01860 133-296): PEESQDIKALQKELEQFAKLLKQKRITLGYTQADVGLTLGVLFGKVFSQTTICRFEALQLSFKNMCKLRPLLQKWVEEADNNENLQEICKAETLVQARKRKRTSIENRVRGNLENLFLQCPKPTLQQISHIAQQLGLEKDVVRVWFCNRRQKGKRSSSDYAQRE
# T1 sequence (P48431 39-118): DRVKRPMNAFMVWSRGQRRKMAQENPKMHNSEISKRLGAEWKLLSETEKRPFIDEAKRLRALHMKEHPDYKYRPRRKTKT
Binder,Kd [2],Kd [3],other results
B1,–,–,binding result [1]: binds
B2,1.1 ± 0.2 nM,32 ± 3 nM,–
B3,2.3 ± 0.3 nM,–,–
B4,3 ± 0.4 nM,38 ± 4 nM,–
B5,2.1 ± 0.2 nM,–,–
B6,3.7 ± 0.5 nM,–,–
B7,8 ± 0.7 nM,160 ± 20 nM,–
B8,–,–,binding result [4]: binds; binding result [5]: binds
